Test results taken from US20210388337.

Tests used:
Test in all cases: stopped-flow tryptophan fluorescence, avidin 0.5 µM, biotin-protein 5.0 µM
Native avidin, P02701 = biological target: Native avidin, P02701
Avidin-pCBMA152, P02701 = biological target: Avidin-pCBMA152, P02701
Avidin-pCBMA56, P02701 = biological target: Avidin-pCBMA56, P02701
Avidin-pCBMA182, P02701 = biological target: Avidin-pCBMA182, P02701
Avidin-pCBMA121, P02701 = biological target: Avidin-pCBMA121, P02701
Avidin-pCBMA109, P02701 = biological target: Avidin-pCBMA109, P02701
Avidin-pCBMA170, P02701 = biological target: Avidin-pCBMA170, P02701
Avidin-pCBMA232, P02701 = biological target: Avidin-pCBMA232, P02701
Avidin-pCBMA58, P02701 = biological target: Avidin-pCBMA58, P02701
Sequence of Avidin-pCBMA58, P02701 (P02701 25-152): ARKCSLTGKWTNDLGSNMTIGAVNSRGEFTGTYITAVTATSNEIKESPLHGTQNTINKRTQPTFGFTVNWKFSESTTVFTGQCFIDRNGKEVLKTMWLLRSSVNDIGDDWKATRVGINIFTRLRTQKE

Sequence of Avidin-pCBMA56, P02701 (P02701 25-152): as above
Sequence of Avidin-pCBMA152, P02701 (P02701 25-152): as above
Sequence of Native avidin, P02701 (P02701 25-152): as above
Sequence of Avidin-pCBMA109, P02701 (P02701 25-152): as above
Sequence of Avidin-pCBMA121, P02701 (P02701 25-152): as above
Sequence of Avidin-pCBMA232, P02701 (P02701 25-152): as above
Sequence of Avidin-pCBMA182, P02701 (P02701 25-152): as above
Sequence of Avidin-pCBMA170, P02701 (P02701 25-152): as above

B1: Biotin-HRP (protein)
chain: QLTPTFYDNSCPNVSNIVRDTIVNELRSDPRIAASILRLHFHDCFVNGCDASILLDNTTSFRTEKDAFGNANSARGFPVIDRMKAAVESACPRTVSCADLLTIAAQQSVTLAGGPSWRVPLGRRDSLQAFLDLANANLPAPFFTLPQLKDSFRNVGLNRSSDLVALSGGHTFGKNQCRFIMDRLYNFSNTGLPDPTLNTTYLQTLRGLCPLNGNLSALVDFDLRTPTIFDNKYYVNLEEQKGLIQSDQELFSSPNATDTIPLVRSFANSTQTFFNAFVEAMDRMGNITPLTGTQGQIRLNCRVVNSNS
Native avidin, P02701
  k (kobs, observed first-order rate constant): 5.03 s⁻¹
Avidin-pCBMA152, P02701
  k (kobs, observed first-order rate constant): 0.025 s⁻¹
Avidin-pCBMA56, P02701
  k (kobs, observed first-order rate constant): 0.261 s⁻¹
Avidin-pCBMA182, P02701
  k (kobs, observed first-order rate constant): 0.025 s⁻¹
Avidin-pCBMA121, P02701
  k (kobs, observed first-order rate constant): 0.218 s⁻¹
Avidin-pCBMA109, P02701
  k (kobs, observed first-order rate constant): 0.026 s⁻¹
Avidin-pCBMA170, P02701
  k (kobs, observed first-order rate constant): 0.209 s⁻¹
Avidin-pCBMA232, P02701
  k (kobs, observed first-order rate constant): 0.196 s⁻¹
Avidin-pCBMA58, P02701
  k (kobs, observed first-order rate constant): 0.028 s⁻¹
